The target of experiment [1] is splitGFP(1-10). Put plainly: cell-based or functional assay.
In experiment [2] the target is splitGFP(1-10). Put plainly: in vitro splitGFP complementation, fluorescence; reference pAbBD-S11.

In the experiment with splitGFP(1-10) [1], Ritux-(pAbBD-S11)2 (antibody) returned a fold-increase in median splitGFP fluorescence, flow cytometry 6 hours after electroporation into HEK293T splitGFP(1-10) cells of 39.4 fold. The same substance yielded a fluorescence relative to pAbBD-S11 with splitGFP(1-10) [2] of 2 fold.
In turn, pAbBD-S11 showed a fold-increase in median splitGFP fluorescence, flow cytometry 6 hours after electroporation into HEK293T splitGFP(1-10) cells with splitGFP(1-10) [1] of 33.5 fold.

The values above are taken from patent publication US20230031853A1.
